According to paper doi:10.1101/2023.05.17.541065:

How the values were obtained:
EIL1-GST = biological target: T1, EIL1-GST (tomato, UniProt Q94FV4 1-610); experiment: EMSA
T1 sequence: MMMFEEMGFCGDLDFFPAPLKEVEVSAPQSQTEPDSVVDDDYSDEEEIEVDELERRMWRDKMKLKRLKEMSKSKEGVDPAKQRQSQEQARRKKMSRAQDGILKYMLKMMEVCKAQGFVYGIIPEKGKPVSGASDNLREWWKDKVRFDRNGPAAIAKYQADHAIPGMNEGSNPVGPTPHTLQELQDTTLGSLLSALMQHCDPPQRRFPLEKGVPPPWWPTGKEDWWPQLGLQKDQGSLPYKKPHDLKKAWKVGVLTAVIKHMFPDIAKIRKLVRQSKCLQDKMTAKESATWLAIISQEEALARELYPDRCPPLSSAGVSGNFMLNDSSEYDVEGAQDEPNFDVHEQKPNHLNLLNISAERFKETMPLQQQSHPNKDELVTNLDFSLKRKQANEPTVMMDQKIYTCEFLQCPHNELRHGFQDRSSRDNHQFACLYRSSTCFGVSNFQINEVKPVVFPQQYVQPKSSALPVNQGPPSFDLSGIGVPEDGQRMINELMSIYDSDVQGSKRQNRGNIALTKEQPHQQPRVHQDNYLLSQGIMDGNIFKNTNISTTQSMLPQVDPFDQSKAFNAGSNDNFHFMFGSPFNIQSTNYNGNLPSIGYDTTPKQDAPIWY

MYC2-TF = MYC2-TF (tomato, UniProt A0A3Q7HRZ6 1-689); experiment: EMSA
Sequence of MYC2-TF (A0A3Q7HRZ6 whole entry): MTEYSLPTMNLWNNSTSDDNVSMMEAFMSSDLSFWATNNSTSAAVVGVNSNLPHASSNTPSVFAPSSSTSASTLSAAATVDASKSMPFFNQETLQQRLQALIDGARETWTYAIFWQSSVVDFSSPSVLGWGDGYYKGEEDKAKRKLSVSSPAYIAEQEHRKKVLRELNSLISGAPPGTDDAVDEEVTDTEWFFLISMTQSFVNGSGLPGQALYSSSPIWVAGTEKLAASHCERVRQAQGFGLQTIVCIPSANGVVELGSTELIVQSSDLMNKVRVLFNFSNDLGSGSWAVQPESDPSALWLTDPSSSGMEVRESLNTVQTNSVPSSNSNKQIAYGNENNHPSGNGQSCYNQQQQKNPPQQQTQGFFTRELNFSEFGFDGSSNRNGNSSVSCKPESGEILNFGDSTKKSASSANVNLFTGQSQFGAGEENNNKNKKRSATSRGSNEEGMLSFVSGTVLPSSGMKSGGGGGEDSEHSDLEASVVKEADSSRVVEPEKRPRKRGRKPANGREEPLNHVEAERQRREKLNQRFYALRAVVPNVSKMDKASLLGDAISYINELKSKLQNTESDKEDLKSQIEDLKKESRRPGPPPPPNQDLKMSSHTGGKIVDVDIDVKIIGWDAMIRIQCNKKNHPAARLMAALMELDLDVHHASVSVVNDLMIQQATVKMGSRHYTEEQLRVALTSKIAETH

B1: CYP94C1 promoter EBS probe (dsDNA)
DNA 1: TGTGTCTTTTTTCAATAAAGGTGATGTATCGGGACAAGATGCATCGGACGCTG
DNA 2: CAGCGTCCGATGCATCTTGTCCCGATACATCACCTTTATTGAAAAAAGACACA
binding result (EIL1-GST): binds

B2: CYP94B promoter G-box probe (dsDNA)
DNA 1: TTTACGCGCACAAGAAACACGTGATTTAAATGCATAATTA
DNA 2: TAATTATGCATTTAAATCACGTGTTTCTTGTGCGCGTAAA
binding result (MYC2-TF): binds
